Reference: PMC12176259, “Bacterial transcriptional repressor NrdR – a flexible multifactorial nucleotide sensor”

T1: NrdR (EcoNrdR) (Escherichia coli K-12 MG1655, UniProt P0A8D0 1-149)
T1 sequence: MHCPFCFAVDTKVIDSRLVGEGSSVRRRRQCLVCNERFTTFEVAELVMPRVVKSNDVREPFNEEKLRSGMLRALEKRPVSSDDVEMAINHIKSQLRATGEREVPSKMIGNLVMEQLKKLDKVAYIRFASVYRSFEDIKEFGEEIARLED


Experiments:
NrdR (EcoNrdR) [1] = target: T1, NrdR (EcoNrdR); assay: cryo-EM structure (4 A); ATP + dATP 0.5 mM each, 5 mM Mg2+, Zn2+; NrdR tetramer; MST: 17 mM Tris-HCl pH 8.6, 100 mM NaCl, 7 mM MgCl2, 0.33 mM TCEP, 0.025% Tween-20, nucleotides 1 mM each, 5 nM Cy5-DNA, room temperature; conditions: protein: recombinant; tags: C-terminal His6; chain copies: 4; blunt
NrdR (EcoNrdR) [2] = target: T1, NrdR (EcoNrdR); assay: MST; ATP + dATP; MST: 17 mM Tris-HCl pH 8.6, 100 mM NaCl, 7 mM MgCl2, 0.33 mM TCEP, 0.025% Tween-20, nucleotides 1 mM each, 5 nM Cy5-DNA, room temperature; conditions: protein: recombinant; tags: C-terminal His6; chain copies: 4; label: 5'-Cy5 sense strand; blunt

| Binder | binding result (NrdR (EcoNrdR) [1]) | binding result (NrdR (EcoNrdR) [2]) |
| --- | --- | --- |
| EcoEF7,3 (dsDNA) DNA 1: GCACTATTTGCTATATATTGTGTGGTTGAATCTTTTTTCAACTACATCTAGTATCTC DNA 2: GAGATACTAGATGTAGTTGAAAAAAGATTCAACCACACAATATATAGCAAATAGTGC | binds |  |
| ribX promoter (dsDNA) DNA 1: AGCATCGATCCTTTATCTCAAAAGCGTTGCGCCTTTGTTGTATCGTCAGTTCAGGGT DNA 2: ACCCTGAACTGACGATACAACAAAGGCGCAACGCTTTTGAGATAAAGGATCGATGCT |  | no binding |
